Data as given in US10654925B2, “Anti-marinobufagenin antibodies and uses thereof” (priority 2018, dated 2020).

Experiments:
[1] = Competitive ELISA, relative CTS specificity, free MBG as competitor; format: binding; conditions: competition with immobilized MBG-BSA; normalized to MBG = 100%
Experimental: (§1) The specificity (relative affinity) of anti-MBG antibodies for MBG relative to various cardiotonic steroids (CTSs) was determined in a competitive ELISA. Each anti-MBG antibody was tested for its binding to immobilized MBG in the presence of free MBG, resibufogenin (RBG), cinobufagin (CINO), ouabain (OUB) or digoxin (DIG) as a competitor. A constant amount of an anti-MBG antibody (typically 1-5 μg/mL) and varying concentrations of each CTS (from 10^−12M to 10^−5M) were pre-incubated before being added to the MBG-BSA-coated wells. After washing of the wells, an anti-human Fc, HRP-conjugated secondary antibody (at 1:5000 dilution) was added to the wells and incubated at 37° C. for 1 hr. After washing of the wells, an appropriate HRP reagent (e.g., TMB ultra, Thermo Fisher) was added to the wells. OD at 450 nm was measured by a microplate reader. MBG at 10 μM was assumed to be 100% competed, and MBG at 1 pM was assumed to be 0% competed. The data was plotted as a titration of antibody-antigen binding relative to free CTS concentration in the competition reaction to determine the free CTS concentration (μM) giving 50% maximal binding of antibody to immobilized MBG. The relative specificity of an antibody for a CTS was normalized to MBG=100%.

[2] = Competitive ELISA, relative CTS specificity, OUB as competitor; format: binding; conditions: competition with immobilized MBG-BSA; normalized to MBG = 100%
Experimental: as §1

[3] = Competitive ELISA, free CTS competitors overall (summary and footnote); format: binding; conditions: competitors RBG, CINO, OUB, DIG; Table 2
Experimental: as §1

[4] = tested on: human umbilical cord venous endothelial cells (HUVEC); experiment: Reversal of MBG inhibition of HUVEC cell proliferation (3H-thymidine); format: cell-based; conditions: MBG 2 nM, 48 hr
Experimental: MBG (2 nM) was incubated with an antibody (20 μg/mL in FIG. 3a with human anti-MBG mAbs, or varying concentrations (2.5-10 μg/mL) in FIG. 3b with humanized anti-MBG mAbs) prior to addition to cultured human umbilical cord venous endothelial cells (HUVEC). After 48 hr, DNA synthesis was assessed by incorporation of ^3H-thymidine.
HUVEC cells in endothelial cell growth medium were plated onto 96-well plates. The next day, the cells were pretreated with various antibodies (2.5-20 μg/mL) and then incubated with 2 nM MBG for 48 hr. [^3H]-Thymidine was added to each well. [^3H]-Thymidine-labeled DNA was assayed by harvesting the cells and assaying for ^3H using a PerkinElmer Wallac Tailux liquid scintillation counter. […] Means were tested for significance using Student's t-test.

[5] = tested on: PKC-δ in the nucleus of primary rat cardiac fibroblasts; experiment: Inhibition of MBG-induced PKC-δ nuclear translocation (Western blot); conditions: MBG 2 nM; nuclei isolated 30 min later; FIG. 2a
Experimental: MBG was incubated with an anti-MBG antibody prior to addition to cultured primary rat cardiac fibroblasts. Nuclei were isolated 30 min later and analyzed for amount of PKC-6.

[6] = Competitive ELISA, relative CTS specificity, RBG as competitor; format: binding; conditions: competition with immobilized MBG-BSA; normalized to MBG = 100%
Experimental: as §1

[7] = Competitive ELISA, relative CTS specificity, CINO as competitor; format: binding; conditions: competition with immobilized MBG-BSA; normalized to MBG = 100%
Experimental: as §1

[8] = Competitive ELISA, relative CTS specificity, DIG as competitor; format: binding; conditions: competition with immobilized MBG-BSA; normalized to MBG = 100%
Experimental: as §1

Molecule | Rel. CTS Specificity as % of MBG Binding: MBG [1] [%] | Rel. CTS Specificity as % of MBG Binding: OUB [2] [%] | amount of PKC-δ in the nucleus, MBG plus antibody [5] | other results
238/239: human anti-MBG antibody, VH SEQ ID NO: 41, VL SEQ ID NO: 42 (antibody, listed as Homo sapiens, V domains shown) VH: QLQLQESGPGLVKPSETLSLTCTVSGGSISSSSYYWGWIRQPPGKGLEWIGSIYYSGSTYYNPSLKSRVTISVDTSKNQFSLKLSSVTAADTAVYYCARVVVARTGTTISWFDPWGQGTLVTVSS VL: QAVLTQPSSLSASPGASASLTCTLRSGINVDTYRIYWYQQKPGSPPQYLLRYKSDSDKQQGSGVPSRFSGSKDASANAGILLISGLQSEDEADYYCVIWHSSAWVFGGGTKLTVL | 100 | 10 | to a lesser extent | reaction with CTS competitor molecules [3]: reacted with the CTS competitor OUB; MBG inhibition of HUVEC cell proliferation, human mAbs ([4]; antibody 20 μg/mL, FIG. 3a): significantly reduced
R4CE-10H: human anti-MBG antibody, VH SEQ ID NO: 80, VL SEQ ID NO: 81 (antibody, listed as Homo sapiens) VH: QLQLQESGPGLVKPSQTLSLTCTVSGGSISSGGYYWSWIRQPPGKGLEWIGSIYHSGSTYYNPSLKSRVTISVDTSKNQFSLKLSSVTAADTAVYYCARVMYYYGSGSPYWYFDLWGRGTLVTVSS light: QSVVTQPPSVSAAPGQKVTISCSGSSSNIGKNFVSWYQQFPGTAPKFLIYENSKRPSGIPDRISGSKSGTSATLAITGLQTGDEADYYCGTWDSSLSAVVFGGGTKLTVLSQPKAAPSVTLFPPSSEELQANKATLVCLISDFYPGAVTVAWKADSSPVKAGVETTTPSKQSNNKYAASSY | 100 | – | – | –
H3L1: humanized anti-MBG antibody, VH H3 (SEQ ID NO: 11) with VL L1 (SEQ ID NO: 12) (antibody, V domains shown, Humanized VH sequence; Humanized VL sequence) VH: EVQLQESGPGLVKPSETLSLTCTVSGDSITSGYWNWIRQPPGKGLEYMGYISYSGTTYYNPSLKSRITISRDTSKNQYSLKLSSVTAADTAVYYCARARYGYGFDYWGQGTLVTVSS VL: DVVMTQSPLSLPVTLGQPASISCRSSQSIVHSNRNTYLEWFQQRPGQSPRRLIYKVSNRFSGVPDRFSGSGSGTDFTLKISRVEAEDVGVYYCFQGSHVPLTFGGGTKVEIK | – | – | reduced | –
H2L1: humanized anti-MBG antibody, VH H2 (SEQ ID NO: 10) with VL L1 (SEQ ID NO: 12) (antibody, V domains shown, Humanized VH sequence; Humanized VL sequence) VH: EVQLQESGPGLVKPSETLSLTCTVSGDSITSGYWNWIRQPPGKGLEYIGYISYSGTTYYNPSLKSRVTISRDTSKNQFSLKLSSVTAADTAVYYCARARYGYGFDYWGQGTLVTVSS VL: DVVMTQSPLSLPVTLGQPASISCRSSQSIVHSNRNTYLEWFQQRPGQSPRRLIYKVSNRFSGVPDRFSGSGSGTDFTLKISRVEAEDVGVYYCFQGSHVPLTFGGGTKVEIK | – | – | to a lesser extent | –
H2L2: humanized anti-MBG antibody, VH H2 (SEQ ID NO: 10) with VL L2 (SEQ ID NO: 13) (antibody, V domains shown, Humanized VH sequence; Humanized VL sequence) VH: EVQLQESGPGLVKPSETLSLTCTVSGDSITSGYWNWIRQPPGKGLEYIGYISYSGTTYYNPSLKSRVTISRDTSKNQFSLKLSSVTAADTAVYYCARARYGYGFDYWGQGTLVTVSS VL: DVVMTQSPLSLPVTLGQPASISCRSSQSIVHSNRNTYLEWYQQRPGQSPRLLIYKVSNRFSGVPDRFSGSGSGTDFTLKISRVEAEDVGVYYCFQGSHVPLTFGGGTKVEIK | – | – | to a lesser extent | MBG inhibition of HUVEC cell proliferation, humanized mAbs ([4]; antibody 2.5-10 μg/mL, FIG. 3b): significantly reduced
2A-5A: human anti-MBG antibody, VH SEQ ID NO: 100, VL SEQ ID NO: 101 (antibody, listed as Homo sapiens) VH: QVQLQESGPGLVKPSETLSLTCTVSGGSISSSSYYWGWIRQPPGKGLEWIGSIYYSGSTYYNPSLKSRVTISVDTSKNQFSLKLSSVTAADTAVYYCARFSRGGPFLWGRGTLVTVSS light: QSVVTQPPSVSAAPGQKVTISCSGSSSNIGSYSVSWYQQLPGTAPKLLIYDNNKRPSGIPDRFSGSKSGTSATLGITGLQTGDEADYYCGTWDSSLSAYVFGSGTKVTVLGQPKANPTVTLFPPSSEELQANKATLVCLISDFYPGAVTVAWKADGSPVKAGVETTKPSKQSNNKYAASSYLSLTPEQWKSHRSYSCQVTHEGSTVEKTVAPTECS | 100 | 0 | – | Rel. CTS Specificity as % of MBG Binding: RBG [6]: 10%; Rel. CTS Specificity as % of MBG Binding: CINO [7]: 2.5%; Rel. CTS Specificity as % of MBG Binding: DIG [8]: 2.5%; reaction with CTS competitor molecules [3]: reacted with the CTS competitors RBG, CINO and DIG
1B-6C: human anti-MBG antibody, VH SEQ ID NO: 87, VL SEQ ID NO: 88 (antibody, listed as Homo sapiens) VH: QVQLQESGPGLVKPSETLSLTCTVSGGSISSSSYYWGWIRQPPGKGLEWIGSIYYSGSTYYNPSLKSRVTISLDTSKNQFSLKLSSLTAADTAVYYCARVPAIRSSAIFDYWGQGTLVTVSS light: QSVVTQPPSVSAAPGQKVTISCFGSRSNIGNNYVSWYQQFPGTAPQLLIFDNNKRPSGIPDRFSGSKSGTSASLGITGVQTGDEAEYYCGAWDSSLSAGAVFGGGTKLTVLGQPKAAPSVTLFPPSSEELQANKATLVCLISDFYPGAVTVAWKADSSPVKAGVETTTPSKQSNNKYAASSYLSLTPEQWKSHRSYSCQVTHEGSTVEKTVAPTECS | 100 | – | – | –
205/207: human anti-MBG antibody, VH SEQ ID NO: 53, VL SEQ ID NO: 54 (antibody, listed as Homo sapiens, V domains shown) VH: QLQLQESGPGLVKPSETLSLTCTVSGGSISSSSYYWGWIRQPPGKGLEWIGSIYYSGSTYYNPSLKSRVTISVDTSKNQFSLKLSSVTAADTAVYYCARFHTWAPRAFDIWGQGTMVTVSS VL: QSVVTQPPSVSAAPGQEVTISCSGSSSNIGNNYVSWYQQLPGTAPKLLIYDNNKRPSGIPDRFSGSKSGTSATLGITGLQTGDEADYYCGTWDSSLSALFGGGTKLTVL | 100 | 0 | – | Rel. CTS Specificity as % of MBG Binding: CINO [7]: 0%; Rel. CTS Specificity as % of MBG Binding: DIG [8]: 0%
